{
  "source": "the nanobody polyreactivity screen of Harvey et al. (2022)",
  "data": [
    {"assay": "yeast display, Sf9 membrane polyspecificity reagent, FACS + sequencing; frameworks hold sequencing errors", "in_short": "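Using colony PCR, genes from sorted yeast display clones were amplified, then sequenced on MiSeq at 2 × 250 and filtered by CDR length. The clones had been stained with 10% biotinylated, detergent-solubilized Sf9 membrane reagent for 1 hour at 4 °C and sorted by FACS into low and high (top ~1%) gates on anti-HA and streptavidin fluorescence. Polyreactivity labels come from the gate of origin.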", "values": [
      {"sequence": "QVQLVESGGGLVQAGGSLRLSCAASGLIFHRNAMGWYRQAPGTERELVAAITKTGGGTYYADSVKGRFTISRDNAKNTVYLQMNSLKPEDTAVYYCAADTQRTFYYWGQGTQVTVSS", "polyreactivity (PSR sort gate)": "low polyreactivity"},
      {"sequence": "QVQLVESGGGLVQAGGSLRLSCAASGLIFIDYAIGWYRQAPGKERELVAAITRGGARTYYADSVKGRFTISRDNAKNTVYLEMNSLKPEDTAVYYCAADRPGSRYIDVDYWGQGTQVTVSS", "polyreactivity (PSR sort gate)": "high polyreactivity"},
      {"sequence": "QVQLVESGGGLVQAGGSLRLSCAASGLIFIFNTMGWYRQAPGKERELVAAISWSGTSTYYADSVKGRFTISRDNANMTVYLLMNSLKPVDTAVYFCNDDLYWFRGFDYWGQGTQVTVSS", "polyreactivity (PSR sort gate)": "high polyreactivity"},
      {"sequence": "QVQLVESGGGLVQAGGSLRLSCAASGLIFIVYAMGWYRQAPGKERELVAAISWSGGSTYYADSVKGRFTISRDNAKNTVYLQMNSLKPEDTAVYYCAAESYGVWDYEYWGQGTQVTVSS", "polyreactivity (PSR sort gate)": "high polyreactivity"},
      {"sequence": "QVQLVESGGGLVQAGGSLRLSCAASGLIFKYNVMGWYRQAPGKERELVAAITKRGGSTYYADSVKGRFTISRDNAKNTVYLQMNSLKPEDTAVYYCAARPVNTVRPFDYWGQGTQVTVSS", "polyreactivity (PSR sort gate)": "high polyreactivity"},
      {"sequence": "QVQLVESGGGLVQAGGSLRLSCAASGLIFKYNVMGWYRQAPGKERELVAAITKRGGSTYYADSVKGRFTISRDNEKNTVYLQMNSLKPEDTAVYYCAARPVNTVRPFDYWGQGTQVTVSS", "polyreactivity (PSR sort gate)": "high polyreactivity"},
      {"sequence": "QVQLVESGGGLVQAGGSLRLSCAASGLIFKYYAMGWYRHAPGKERELVAAITWRGGDRTYYADSVKGRFTISRDNAKNTVYLQMNSLKPEDTAVYYCAAVISSPWRFDYWGQGTQVTVSS", "polyreactivity (PSR sort gate)": "high polyreactivity"},
      {"sequence": "QVQLVESGGGLVQAGGSLRLSCAASGLIFKYYAMGWYRQAPGKERELVASISRGGVTTYYADSVKGRFTISRDNAKNTVYLQMNSLKPEDTAVYYCAARFRYAPFYHWGQGTQVTVSS", "polyreactivity (PSR sort gate)": "high polyreactivity"},
      {"sequence": "QVQLVESGGGLVQAGGSLRLSCAASGLIFLWYAMGWYRQAPGKERELVAAIRSSGDSTYYADSVKGRFTISRDNAKNTVYLQMNSLKPEDTAVYYCNRRKTNSRYDYWGQGTQVTVSS", "polyreactivity (PSR sort gate)": "low polyreactivity"},
      {"sequence": "QVQLVESGGGLVQAGGSLRLSCAASGLIFLYAMGWYRQAPGKERELVAAISNGGSTYYADSVKGRFTISRDNAKNTVYLQMNSLKPEDTAVYYCAAKGVRRRYRQDMYYWGQGTQVTVSS", "polyreactivity (PSR sort gate)": "high polyreactivity"},
      {"sequence": "QVQLVESGGGLVQAGGSLRLSCAASGLIFLYNPMGWYRQAPGKEREFVAAITSVDSTKYADSVKGRFTISRENAKNTVYLQLNSLKPEDTAVYYCAAVPRYQYGYWGQGTQVTVSS", "polyreactivity (PSR sort gate)": "low polyreactivity"},
      {"sequence": "QVQLVESGGGLVQAGGSLRLSCAASGLIFNWNDMGWYRQAPGKERELVAAISGDGGITYYADSVKGRFTISRDNAKNTVYLQMNSLKPEDTAVYYCNAGFTWGDWYDYWGQGTQVTVSS", "polyreactivity (PSR sort gate)": "low polyreactivity"},
      {"sequence": "QVQLVESGGGLVQAGGSLRLSCAASGLIFNYNSMGWYLQAPGKEMELVAVITSGDSTNYADSVKGRFTISRDNAKNTVYLQMNSLKPEDTAVYYCNADYVYSGGRYYGKDYWFDYWGQGTQVTVSS", "polyreactivity (PSR sort gate)": "low polyreactivity"},
      {"sequence": "QVQLVESGGGLVQAGGSLRLSCAASGLIFPGYAMGWYRPAPGKERELVAAISGSGGSTYYADSVKGRFTISRDNAKNTVYLQMNSLKPEDTAVYYCSTSGPQYYSRNFDYWGQGTQVTVSS", "polyreactivity (PSR sort gate)": "low polyreactivity"},
      {"sequence": "QVQLVESGGGLVQAGGSLRLSCAASGLIFPKYAMGWYRQAPGNEREFVAAISGRGGTTYYADSVKGRFTISRDNAKNTVYLQMNSLKPEDTAVYYCAAGGPWANIYGNGYWGQGTQVTVSS", "polyreactivity (PSR sort gate)": "high polyreactivity"},
      {"sequence": "QVQLVESGGGLVQAGGSLRLSCAASGLIFPPNVMGWYRQAPWKERELVAAITSSGSTKYADSVKGRFTISRDNAKNTVYLQMNSLKPEDTAVYYCARDQTWSYQPWYYLSYPQYEYWGQGTQVTVSS", "polyreactivity (PSR sort gate)": "low polyreactivity"},
      {"sequence": "QVQLVESGGGLVQAGGSLRLSCAASGLIFPPYAMGWYRQAPGKEREFVARISWSTSSTYYADSVKGRFTISRDNAKNTVYLQMNSLKPEDTAVYYCNARFDDWWGEFDYWGQGTQVTVSS", "polyreactivity (PSR sort gate)": "high polyreactivity"},
      {"sequence": "QVQLVESGGGLVQAGGSLRLSCAASGLIFPVYVMGWYRQAPGKEREFVAAITWSTSTYYADSVKGRFTISRDNAKNTVYLQMNSLKPEDTAVYYCNARRGWYSPIYYYWGQGTQVTVSS", "polyreactivity (PSR sort gate)": "high polyreactivity"},
      {"sequence": "QVQLVESGGGLVQAGGSLRLSCAASGLIFQTYAMGWSRQAPGKERELVATISGSTGGTYYADSVKGRFTISRDNAKNTVYLQMNSLKPEDTAVYYCNASVFQSEYDYWGQGTQVTVSS", "polyreactivity (PSR sort gate)": "low polyreactivity"},
      {"sequence": "QVQLVESGGGLVQAGGSLRLSCAASGLIFQVYDIGWYRQAPGKERELVAAISSGSNTNYADSVKGRFTISRDNAKNTVYLQMNSLKPEDTAVYYCAADFQYYFFWEEDYWGQGTQVTVSS", "polyreactivity (PSR sort gate)": "low polyreactivity"},
      {"sequence": "QVQLVESGGGLVQAGGSLRLSCAASGLIFQVYDMGWYRQAPGKERELDAAISSGSNTNYADSVKGRFTISRDNAKNTVYLQMNSLIPEDTAVYYCAASWGYGGLTPDMGYWGQGTHVTVSS", "polyreactivity (PSR sort gate)": "low polyreactivity"},
      {"sequence": "QVQLVESGGGLVQAGGSLRLSCAASGLIFRHYVMGWYRQAPGKERELVAAITSRGGTTYYADSVKGRFTISRDNAKNTVYLQMNSLKPEDTAVYYCATVHSYTIQRYDYWGQGTQVTVSS", "polyreactivity (PSR sort gate)": "high polyreactivity"},
      {"sequence": "QVQLVESGGGLVQAGGSLRLSCAASGLIFRKNAMGWYRQAPGKERELVAAISSSDSSTYADSVKGRFTISRDNAKNTVYLQMYSLKPEDTAVYYCAAASYNWLDWVTREYWGQGTQVTVSS", "polyreactivity (PSR sort gate)": "low polyreactivity"},
      {"sequence": "QVQLVESGGGLVQAGGSLRLSCAASGLIFRQYAMGWYRPAPGKERELVAAITQTGGRTYYADSVKGRFTISRDNAKNTVYLQMNSLKPEDTAVYYCNALTFAAGDHYDYWGQGTQVTVSS", "polyreactivity (PSR sort gate)": "low polyreactivity"},
      {"sequence": "QVQLVESGGGLVQAGGSLRLSCAASGLIFRRYAMGWYRQAPGKEREFVAAISWSGGSTYYADSVKGRFTISRDNAKNTVYLQMNSLKPEDTAVYYCAARYRFGGIRRYNYWGQGTQVTVSS", "polyreactivity (PSR sort gate)": "high polyreactivity"},
      {"sequence": "QVQLVESGGGLVQAGGSLRLSCAASGLIFRRYAMGWYRQAPGKERELVAAISRTGGTTYYADSVKGRFTISRDNAKNTVYLQMNSLKPEDTAVYYCAAAGQGPDYDYWGQGTQVTVSS", "polyreactivity (PSR sort gate)": "high polyreactivity"},
      {"sequence": "QVQLVESGGGLVQAGGSLRLSCAASGLIFRTYAMGWNRQAPGKERELVAAIRGGGSTNYADSVNGRFTISRDNAKNTVYLQMNSLKPEDTAVYYCAALVYAVTRRRVQGYGYDYWGQGTQVTVSS", "polyreactivity (PSR sort gate)": "low polyreactivity"},
      {"sequence": "QVQLVESGGGLVQAGGSLRLSCAASGLIFRVYAMGWYRQAPGKERELVAAITWSDGSTYYADSVKGRFTISRDNAKNTVYLQMNSLKPEDTAVYYCATAYFRVYHSRYYYWGQGTQVTVSS", "polyreactivity (PSR sort gate)": "high polyreactivity"},
      {"sequence": "QVQLVESGGGLVQAGGSLRLSCAASGLIFRYYAMGVYRQAPGHERELVAALTSTGRTYYADSVKGRFTISRDNAKNTVYVQMNSLKPEDTAVYYCNTDQFADYHTDFWSDYEYWGQGTQVTVSS", "polyreactivity (PSR sort gate)": "low polyreactivity"},
      {"sequence": "QVQLVESGGGLVQAGGSLRLSCAASGLIFRYYAMGWYRQAPGKERELVAAIRRGGSTYYADSVKGRFTISRDNAKNTVYLQMNSLKPEDTAVYYCAADSYYWRYEYDYWGQGTQVTVSS", "polyreactivity (PSR sort gate)": "high polyreactivity"},
      {"sequence": "QVQLVESGGGLVQAGGSLRLSCAASGLIFRYYCMGWSRQAPRKERELVATINRSGGRTYYADSVKGRFTISRDNAKNTDSLQMNSQKRDETAVYYCAALPEVYWIYGPQMDYWGQGTQVNVSS", "polyreactivity (PSR sort gate)": "high polyreactivity"},
      {"sequence": "QVQLVESGGGLVQAGGSLRLSCAASGLIFSEYAMGWYRQAPGKERELDAAIRSDGGSTYYADSVKGRFTISRDNAKNTVYLQMNSLKPEDTAVYYCNDRHRSQTRTAMNYWGQGTIVTVSS", "polyreactivity (PSR sort gate)": "high polyreactivity"},
      {"sequence": "QVQLVESGGGLVQAGGSLRLSCAASGLIFSGYAMGRYRQAPGKERELVAAITWSGGSTYYADSVKGRFTISRDNAKNTVYLQMNSLKPEDTAVYYCNAKFFQISRYGYWGQGTQVTVSS", "polyreactivity (PSR sort gate)": "high polyreactivity"},
      {"sequence": "QVQLVESGGGLVQAGGSLRLSCAASGLIFSPYAMGWYRQAPGKERELVATISVSGGDTYYADSVKGRFTISRDNAKNTVYLQMNSLIPDDTAVYYCAADSFYRYYWGQGTHVTVSS", "polyreactivity (PSR sort gate)": "high polyreactivity"},
      {"sequence": "QVQLVESGGGLVQAGGSLRLSCAASGLIFSRYTMGWYRQAPGKERELVAAISKTGSSTYYADSVKGRFTISRDNAKNTVYLQMNSLIPEDTAVYYCAARAYPGYYWGQGTQVTVSS", "polyreactivity (PSR sort gate)": "high polyreactivity"},
      {"sequence": "QVQLVESGGGLVQAGGSLRLSCAASGLIFSTYAMGWYRQAPGKERELVAAITNSGGSTYYADSVKGRFTISRDNAKNTDYLQMNSLKPEDTAVYYCARRRSYRDNYWGQGTQVTVSS", "polyreactivity (PSR sort gate)": "high polyreactivity"},
      {"sequence": "QVQLVESGGGLVQAGGSLRLSCAASGLIFSVNAMGWYRQAPGKERELVAAITWSSGRTYYADSVKGRFTISRDNAKNTVYLQMNSLKPEDTAVYYCAAVSYWYGQMYYWGHGTQVTVSS", "polyreactivity (PSR sort gate)": "high polyreactivity"},
      {"sequence": "QVQLVESGGGLVQAGGSLRLSCAASGLIFSVYVMGWYRQAPGKERELVAGITTGGSTKYADSVKGRFTISRDNAKNTVYLQMNSLKPEDTSVYYCAVGKYNYRGSWDYYWGQGTQVTVSS", "polyreactivity (PSR sort gate)": "high polyreactivity"},
      {"sequence": "QVQLVESGGGLVQAGGSLRLSCAASGLIFSWNAMGWYRQAPGKEWELVASISYSGGRTYYADSVKGRFTISRDNAKNTVYLQKNSLKPEDTAVYYCAADTNATTDPQMDYWGQGTQVTVSS", "polyreactivity (PSR sort gate)": "low polyreactivity"},
      {"sequence": "QVQLVESGGGLVQAGGSLRLSCAASGLIFSWYDMGWYRQAPGIERELVAAITTDGDDTYYADSVKGRFTISRDNAKNTVYLQLNSLKPEDTAVYYCAADSELAIRYPDRDYDSWGHGTQVTVSS", "polyreactivity (PSR sort gate)": "low polyreactivity"},
      {"sequence": "QVQLVESGGGLVQAGGSLRLSCAASGLIFSYNAMGWYRQAPGKERELVASISSGDSTNYADSVKGRFTISRDNAKNTVYLQMNSLKPEDTAVYYCNKVYSWGDYTPPFYFPYDYWGQGTQVTVSS", "polyreactivity (PSR sort gate)": "low polyreactivity"}
    ]}
  ]
}
